What was measured:
[1] = target: T1, CD40-Fc recombinant protein (human, UniProt P25942 21-193); experiment: FACS staining of T cells expressing the anti-CD40 scFv-CD28 fusion with CD40-Fc protein (FIG. 64)
T1 construct: Soluble staining reagent; also called CD40-Fc protein; not shown: Fc part

[2] = target: T2, BCMA-Fc recombinant protein (human, UniProt Q02223 1-54); experiment: flow cytometry: lentivirally transduced CAR-T cells stained with 5 µg/ml BCMA-Fc, detected with anti-human IgG Fc (FIG. 17B)
T2 construct: Soluble staining reagent, 5 µg/ml; not shown: Fc part
T2 sequence (looked up): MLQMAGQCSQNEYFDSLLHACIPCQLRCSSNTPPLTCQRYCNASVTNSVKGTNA

T1 sequence (P25942 21-193 limits assumed): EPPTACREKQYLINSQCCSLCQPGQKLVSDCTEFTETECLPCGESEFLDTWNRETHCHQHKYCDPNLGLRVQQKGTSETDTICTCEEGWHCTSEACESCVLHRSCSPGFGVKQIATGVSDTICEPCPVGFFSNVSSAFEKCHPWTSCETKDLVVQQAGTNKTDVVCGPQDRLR

B1: anti-CD40 scFv 40-45 (in LACOSTIM 40-45.28) (scFv)
scFv: QSALTQPASVSGSPGQSITISCTGTSSDVGGYKYVSWYQQHPGKAPKLMIYDVSNRPSGVSNRFSGSKSGNTASLTISGLQAEDEADYYCSSYTSSSTPHVVFGGGTKVTVLGGGGSGGGGSGGGGSEVHLVESGGGVVQPGRSLRLSCAASGFPFSRYGMHWVRQAPGKGLEWVSYISSSGSTIYYADSVKGRFTISRDNSKNTVSLQMNSLRADDTAVYYCSRGTRPGITGRLGYWGQGTLVTVSS
notes: Tested on T cells as part of the LACOSTIM 40-45.28 (scFv fused with CD28), co-electroporated with the anti-Her2 CAR 4D5.BBZ; also called 40-45 scFv
B1: binds [1].

B2: anti-CD40 scFv 40-52 (in LACOSTIM 40-52.28) (scFv)
scFv: QSALTQPPSASGSPGQSVTISCTGTSSDVGAYNFVSWYQQHPGNAPKLIIYDVRKRPSGIPDRFSASKSGNTASLTVSGLQADDEADYYCSSYAGNNNLVFGGGTKLTVLGGGGSGGGGSGGGGSQVQLVQSGAEVKKPGSSVKVSCKASGGTFSSYAISWVRQAPGQGLEWMGMINPSGGTTSYAQKFQGRVTMTRDTSTSTVYMELSSLRPEDTAVYYCARGFRMDQWGQGTLVTVSS
notes: Tested on T cells as part of the LACOSTIM 40-52.28 (scFv fused with CD28), co-electroporated with the anti-Her2 CAR 4D5.BBZ; also called 40-52 scFv
B2: binds [1].

B3: anti-BCMA scFv BCMA22 (scFv)
scFv: QSALTQPASVSGSPGQSITISCTGTSSDVGGYNYVSWYQQHPGKAPKLMIYEVTNRPSGVSNRFSGSKSGNTASLTISGLQAEDEAHYYCISYTSSSTLDYVFGTGTKVTVLGGGGSGGGGSGGGGSEVQLVESGPGLVKPSGTLSLTCAVSGGSISSSNWWSWVRQPPGKGLEWIGEIYHSGSTNYNPSLKSRVTISVDKSKNQFSLKLSSVTAADTAVYYCARVGSGYSYGYGDRVLDYWGQGTLVTVSS
notes: also called BCMA22 scFv; BCMA22 CAR
B3: binds [2].

B4: anti-BCMA scFv BCMA24 (scFv)
scFv: QSVLTQPPSASGTPGQRVTISCSGSSSNIGSYSVNWYQQIPGTAPKLLIYSNNQRPSGVPDRFSGSKSGTSASLAISGLQSEDEADYSCAAWDDSLNGVVFGGGTKLTVLGGGGSGGGGSGGGGSQVQLVQSGAEVKKPGSSVKVSCKASGGTFSSYAISWVRQAPGQGLEWMGGIIPIFGTANYAQKFQGRVTITADESTSTAYMELSSLRSEDTAVYYCARGSFYSSVNVWGQGTTVTVSS
notes: also called BCMA24 scFv; BCMA24 CAR
B4: binds [2].

B5: anti-BCMA scFv BCMA27 (scFv)
scFv: QSALTQPPSASGSPGQSVTISCTGSRSNVGSYNDVSWYQQHPGKAPKLIIYDVDKRPAGVPDRFSGSKSGNTASLTVSGLQAEDDADYYCSSYGGTYSLFVFGTGTELTVLGGGGSGGGGSGGGGSEVQLVESGGDLVQPGGSLRLSCAASGFTFSSYGMHWVRQAPGKGLEWVAVISYDGSNKYYADSVKGRFTISRDNSKNTLYLQMNSLRAEDTAVYYCAKEEFYGDSSYGMDVWGQGTTVTVSS
notes: also called BCMA27 scFv; BCMA27 CAR
B5: binds [2].

B6: anti-BCMA scFv BCMA23 (scFv)
scFv: QSALTQPPSASGTPGQRVTISCSGSSPNIGGNSVNWYQQLPGTAPKLLMYTNNQRPSGVPDRFSGSKSGTSASLAISGLQSEDEADYYCAAWDDSLNGVVFGGGTKLTVLGGGGSGGGGSGGGGSQVQLVQSGAEVKKPGESLKISCKGSGYSFTSYWIGWVRQMPGKGLEWMGIIYPGDSDTRYSPSFQGQVTISADKSISTAYLQWSSLKASDTAMYYCARRGGALDYWGQGTLVTVSS
notes: also called BCMA23 scFv; BCMA23 CAR
B6: binds [2].

B7: anti-BCMA scFv BCMA32 (scFv)
scFv: QSALTQPASVSGSPGQSITISCTGTSSDVGGYNYVSWYQQHPGKAPKLMIYDVSKRPSGVSNRFSGSKSGNTASLTISGLQAEDEADYYCSSYTSSSTVVFGGGTKLTVLGGGGSGGGGSGGGGSQVQLQESGAEVKKPGSSVKVSCKASGGTFSRYAISWVRQAPGQGLEWMGGIIPFFGTSDYAQKFQGRVTITADESTSTAYMDLSRLRSEDTAVYYCAVRVATTGTGFYYAMDVWGQGTTVTVSS
notes: also called BCMA32 scFv; BCMA32 CAR
B7: binds [2].

B8: anti-CD40 scFv 40-37 (in LACOSTIM 40-37.28) (scFv)
scFv: SYELTQPPSVSVSPGQTASITCSGDKLGNKYASWYQQKPGQSPVLVIFQDSRRPSGIPERFSGSNSGNTATLTISGTQAMDEADYYCQAWDSSTALFGGGTKLTVLGGGGSGGGGSGGGGSQVQLVQSGGGVVQPGRSLRLSCAASGFTFSSYAMHWVRQAPGKGLEWVAVISKDGSYENYVDSVKGRLAISRDNSKNTLFLQMDSLRPEDTALYFCARDYWYGMDVWGQGTTVTVSS
notes: Tested on T cells as part of the LACOSTIM 40-37.28 (scFv fused with CD28), co-electroporated with the anti-Her2 CAR 4D5.BBZ; also called 40-37 scFv
B8: binds [1].

B9: anti-BCMA scFv BCMA30 (scFv)
scFv: DIQMTQSPSFLSASVGDRVTITCRASQGISSYLAWYQQKPGKAPKLLIYAASTLQSGVPSRFSGSGSGTEFTLTISSLQPEDFATYYCQQLNSYPPWTFGQGTKVEIKGGGGSGGGGSGGGGSQVQLVQSGAEVKKPGESLKISCKGSGYRFTSYWIGWVRQMPGKGLEWMGIIYPGDSDTRYSPPFQGQVTISADKSIDTAYLQWSSLKASDTAMYYCARLDASGSQRGGMDVWGQGTTVTVSS
notes: also called BCMA30 scFv; BCMA30 CAR
B9: binds [2].

B10: anti-CD40 scFv 40-47 (in LACOSTIM 40-47.28) (scFv)
scFv: QSALTQPASVSGSPGQSITISCTGTSSDVGAYNYVSWYQQLPGKTPKLMIYDVTNRPSGVSNRFSGSKSGNTASLTISGLQAEDEAYYYCGSYTTSSTLIFGGGTELTVLGGGGSGGGGSGGGGSEVHLVESGGGLVQPGGSLRLSCAASGFTFSSNWMSWVRQAPGKGLEWVANINQDGSEKYYVDSVKGRFTISRDNAKNSLYLQLNSLRAEDTAEYYCARGGYRYAYWGQGTLVTVSS
notes: Tested on T cells as part of the LACOSTIM 40-47.28 (scFv fused with CD28), co-electroporated with the anti-Her2 CAR 4D5.BBZ; also called 40-47 scFv
B10: binds [1].

B11: anti-BCMA scFv BCMA28 (scFv)
scFv: QSALTQPPSVSEAPRQRVTISCSGSSSNIGQNAVNWYQKLPGKAPKLLIYYNDLVSSGVSDRFSGSKSGTSASLAISGLQSEDEADYYCATWDDSLNGVVFGGGTKVTVLGGGGSGGGGSGGGGSQVQLVQSGPGLVKPSQTLSLTCAISGDSVSSNSAAWNWIRQSPSRGLEWLGRTYYRSKWYNDYAVSVKSRITINPDTSKNQFSLQLNSVTPEDTAVYYCARDYYYGMDVWGQGTTVTVSS
notes: also called BCMA28 scFv; BCMA28 CAR
B11: binds [2].

B12: anti-BCMA scFv BCMA31 (scFv)
scFv: QSALTQPPSASGSPGQSVTISCTGTSSDVGTYNYVSWYQQHPGKAPKLMIYDVNQRPSGVPDRFSGSKSGNTASLTVSGLQAEDEADYYCSSYGGSNNLVFGGGTKVTVLGGGGSGGGGSGGGGSEVQLVESGGGLIQPGGSLRLSCAASGFTFSSYWMSWVRQSPGKGLEWVANIKPDGSDKYYVDSVKGRFTISRDNAKNSLDLQMNSLRGEDTAIYYCARGATTYGSWGQGTLVTVSS
notes: also called BCMA31 scFv; BCMA31 CAR
B12: binds [2].

Reference: patent US20250144213A1 (UTC THERAPEUTICS SHANGHAI, published 2025)
